Results taken from US20240116985A1 (published 2024).
Starred links: 1 amine or outer side, 2 acyl side, 3 side chain; linkers in the order of their positions; H or OH if unused. Positions of bridges follow the written chain, without caps; N, C: chain ends. Non-standard residues stand in square brackets, D forms with d. Primed or numbered codes have the meaning given here. PyrS3″ = (S)-3-amino-1-((hex-5-en-1-yloxy)carbonyl)pyrrolidine-3-carboxylic acid (stapling residue), C=CCCCCOC(=O)N1CC[C@@](N[*:1])(C(=O)[*:2])C1; B5(24) = 2-amino-2-(pent-4-en-1-yl)hept-6-enoic acid, 2,2-bis(4-pentenyl)glycine (stitching residue), C=CCCCC(CCCC=C)(N[*:1])C(=O)[*:2]; B5(4) = 2,2-bis(4-pentenyl)glycine = 2-amino-2-(pent-4-en-1-yl)hept-6-enoic acid (stitching residue), C=CCCCC(CCCC=C)(N[*:1])C(=O)[*:2]; B5(21) = 2-amino-2-(pent-4-en-1-yl)hept-6-enoic acid, bis(4-pentenyl)glycine (stitching residue), C=CCCCC(CCCC=C)(N[*:1])C(=O)[*:2]; B5(6) = 2-amino-2-(pent-4-en-1-yl)hept-6-enoic acid (bis(4-pentenyl)glycine), stitching residue, C=CCCCC(CCCC=C)(N[*:1])C(=O)[*:2]; Phe(2-NO2) = N[C@@H](Cc1ccccc1[N+](=O)[O-])C(=O)O; Phe(2-Br) = N[C@@H](Cc1ccccc1Br)C(=O)O; Phe(2-Cl) = N[C@@H](Cc1ccccc1Cl)C(=O)O; Phe(3-F) = N[C@@H](Cc1cccc(F)c1)C(=O)O; Phe(4-F) = N[C@@H](Cc1ccc(F)cc1)C(=O)O; Phe(2-F) = N[C@@H](Cc1ccccc1F)C(=O)O; Bta = N[C@@H](Cc1csc2ccccc12)C(=O)O; αAllylPro = C=CC[C@@]1(C(=O)O)CCCN1; 2Thi = N[C@@H](Cc1cccs1)C(=O)O; S8 = C=CCCCCCC[C@](C)(N)C(=O)O

T1: full-length beta-Catenin (Uniprot ID P35222) (Homo sapiens (Human), UniProt P35222 1-781)
T1 construct: also called bCat; B-Catenin
T1 sequence: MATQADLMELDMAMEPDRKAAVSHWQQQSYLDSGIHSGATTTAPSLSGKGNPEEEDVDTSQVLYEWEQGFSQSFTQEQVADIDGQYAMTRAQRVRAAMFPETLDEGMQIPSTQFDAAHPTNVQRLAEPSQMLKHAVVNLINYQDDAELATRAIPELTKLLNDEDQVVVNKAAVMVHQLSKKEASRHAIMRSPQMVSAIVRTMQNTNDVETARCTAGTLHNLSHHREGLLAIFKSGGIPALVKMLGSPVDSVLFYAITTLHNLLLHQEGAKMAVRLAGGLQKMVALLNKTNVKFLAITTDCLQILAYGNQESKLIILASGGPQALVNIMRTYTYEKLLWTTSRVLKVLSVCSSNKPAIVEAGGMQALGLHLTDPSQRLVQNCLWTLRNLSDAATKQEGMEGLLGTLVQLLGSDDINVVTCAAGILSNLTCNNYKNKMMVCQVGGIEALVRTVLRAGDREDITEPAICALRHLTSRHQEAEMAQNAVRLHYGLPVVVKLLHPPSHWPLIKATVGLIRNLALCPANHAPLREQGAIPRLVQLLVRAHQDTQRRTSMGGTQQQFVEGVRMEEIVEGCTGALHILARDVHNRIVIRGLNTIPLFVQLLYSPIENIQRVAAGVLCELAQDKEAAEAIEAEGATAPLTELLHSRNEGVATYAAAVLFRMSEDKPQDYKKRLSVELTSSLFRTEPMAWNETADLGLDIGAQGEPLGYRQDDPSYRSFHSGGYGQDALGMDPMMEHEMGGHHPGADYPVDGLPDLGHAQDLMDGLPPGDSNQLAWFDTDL

T2: full-length beta-Catenin (Uniprot ID P35222) (Homo sapiens (Human), UniProt P35222 1-781)
T2 construct: The assay text says 'full-length'; also called bCat; B-Catenin
T2 sequence: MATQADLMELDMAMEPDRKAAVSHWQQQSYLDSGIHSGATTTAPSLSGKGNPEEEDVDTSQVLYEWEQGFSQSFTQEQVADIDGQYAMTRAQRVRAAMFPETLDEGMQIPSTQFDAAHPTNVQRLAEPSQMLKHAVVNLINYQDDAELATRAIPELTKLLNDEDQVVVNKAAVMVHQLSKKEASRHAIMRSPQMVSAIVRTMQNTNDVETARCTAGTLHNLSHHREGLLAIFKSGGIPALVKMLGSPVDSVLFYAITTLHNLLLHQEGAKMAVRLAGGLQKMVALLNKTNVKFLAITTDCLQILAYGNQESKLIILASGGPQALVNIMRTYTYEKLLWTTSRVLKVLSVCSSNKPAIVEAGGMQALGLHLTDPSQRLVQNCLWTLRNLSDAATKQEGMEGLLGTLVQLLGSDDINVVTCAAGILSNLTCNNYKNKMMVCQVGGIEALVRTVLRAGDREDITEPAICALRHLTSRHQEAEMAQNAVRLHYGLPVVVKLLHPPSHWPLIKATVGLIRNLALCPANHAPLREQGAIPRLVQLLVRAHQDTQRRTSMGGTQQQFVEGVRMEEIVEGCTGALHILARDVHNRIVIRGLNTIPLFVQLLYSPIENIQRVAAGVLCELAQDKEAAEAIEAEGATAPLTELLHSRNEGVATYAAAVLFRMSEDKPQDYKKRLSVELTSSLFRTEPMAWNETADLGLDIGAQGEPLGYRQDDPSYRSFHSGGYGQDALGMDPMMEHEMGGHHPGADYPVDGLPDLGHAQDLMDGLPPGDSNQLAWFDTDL

T3: full-length beta-Catenin (Uniprot ID P35222) (Homo sapiens (Human), UniProt P35222 1-781)
T3 construct: also called bCat; B-Catenin
T3 sequence: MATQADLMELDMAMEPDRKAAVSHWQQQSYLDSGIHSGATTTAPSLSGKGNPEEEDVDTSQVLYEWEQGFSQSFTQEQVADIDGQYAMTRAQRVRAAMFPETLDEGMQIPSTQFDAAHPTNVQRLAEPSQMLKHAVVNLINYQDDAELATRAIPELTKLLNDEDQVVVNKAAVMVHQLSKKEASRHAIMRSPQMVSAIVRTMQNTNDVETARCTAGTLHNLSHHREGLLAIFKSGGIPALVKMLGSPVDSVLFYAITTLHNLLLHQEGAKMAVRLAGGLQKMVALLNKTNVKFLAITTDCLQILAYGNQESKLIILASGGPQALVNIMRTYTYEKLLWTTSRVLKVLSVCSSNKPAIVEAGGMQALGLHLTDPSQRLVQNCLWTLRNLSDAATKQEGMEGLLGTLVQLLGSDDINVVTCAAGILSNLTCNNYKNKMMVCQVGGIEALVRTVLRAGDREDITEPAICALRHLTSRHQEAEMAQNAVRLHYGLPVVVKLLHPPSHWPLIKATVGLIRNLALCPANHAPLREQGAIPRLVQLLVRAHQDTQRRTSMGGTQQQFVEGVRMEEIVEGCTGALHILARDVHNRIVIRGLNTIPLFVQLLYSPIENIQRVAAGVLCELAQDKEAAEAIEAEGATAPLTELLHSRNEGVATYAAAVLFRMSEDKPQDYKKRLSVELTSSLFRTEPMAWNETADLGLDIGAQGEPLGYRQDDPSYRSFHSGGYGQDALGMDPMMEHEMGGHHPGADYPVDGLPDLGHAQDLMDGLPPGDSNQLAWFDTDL

B1: I-756 (peptide)
peptide: Ac-[αAllylPro]DL[B5(4)]DEAAFN[S8]F[Bta][dS]-NH2
modifications: staple 1-4, 4-11
notes: Stapled peptide; also called Ac-PL3-Asp-Leu-B5-Asp-Glu-Ala-Ala-Phe-Asn-S8-Phe-BztA-dSer-NH2
B2: I-434 (peptide)
peptide: Ac-[αAllylPro]DA[B5(24)]DEAAFN[S8][Phe(2-F)][Bta]Q-NH2
modifications: staple 1-4, 4-11
notes: Stapled peptide composition
B3: I-435 (peptide)
peptide: Ac-[αAllylPro]DA[B5(24)]DEAAFN[S8][Phe(2-Cl)][Bta]Q-NH2
modifications: staple 1-4, 4-11
notes: Stapled peptide composition
B4: I-436 (peptide)
peptide: Ac-[αAllylPro]DA[B5(24)]DEAAFN[S8][Phe(2-Br)][Bta]Q-NH2
modifications: staple 1-4, 4-11
notes: Stapled peptide composition
B5: I-455 (peptide)
peptide: Ac-[αAllylPro]DA[B5(21)]DEAA[Phe(4-F)]N[S8]F[Bta]Q-NH2
modifications: staple 1-4, 4-11
notes: Stapled peptide composition
B6: I-469 (peptide)
peptide: Ac-[αAllylPro]DI[B5(6)]DDAAFN[S8]F[Bta]H-NH2
modifications: staple 1-4, 4-11; also: staple isomer composition: earlier-eluting HPLC peak
notes: Stapled peptide; earlier-eluting HPLC peak (staple isomer composition)
B7: I-467 (peptide)
peptide: Ac-[αAllylPro]DI[B5(6)]DDAAFN[S8]F[Bta]Q-NH2
modifications: staple 1-4, 4-11; also: staple isomer composition: earlier-eluting HPLC peak
notes: as for B6
B8: I-468 (peptide)
peptide: Ac-[αAllylPro]DI[B5(6)]DDAAFN[S8]F[Bta]Q-NH2
modifications: staple 1-4, 4-11; also: staple isomer composition: later-eluting HPLC peak
notes: Stapled peptide; later-eluting HPLC peak (staple isomer composition)
B9: I-450 (peptide)
peptide: Ac-[αAllylPro]DA[B5(21)]DEAA[2Thi]Q[S8][Phe(3-F)]WQ-NH2
modifications: staple 1-4, 4-11
notes: Stapled peptide composition
B10: I-441 (peptide)
peptide: Ac-[αAllylPro]DA[B5(21)]DEAAFN[S8][Phe(2-NO2)][Bta]Q-NH2
modifications: staple 1-4, 4-11
notes: Stapled peptide composition
B11: I-454 (peptide)
peptide: Ac-[αAllylPro]DA[B5(21)]DEAA[Phe(3-F)]N[S8]F[Bta]Q-NH2
modifications: staple 1-4, 4-11
notes: Stapled peptide composition
B12: I-463 (peptide)
peptide: Ac-[αAllylPro]DA[B5(21)]DEAAFN[PyrS3″]F[Bta]Q-NH2
modifications: staple 1-4, 4-11; also: earlier-eluting HPLC staple isomer
notes: as for B6
B13: I-453 (peptide)
peptide: Ac-[αAllylPro]DA[B5(21)]DEAA[Phe(2-F)]N[S8]F[Bta]Q-NH2
modifications: staple 1-4, 4-11
notes: Stapled peptide composition
B14: I-464 (peptide)
peptide: Ac-[αAllylPro]DA[B5(21)]DEAAFN[PyrS3″]F[Bta]Q-NH2
modifications: staple 1-4, 4-11; not fully specified; printed as Ac-PL3-Asp-Ala-B5-Asp-Glu-Ala-Ala-Phe-Asn-PyrS3-Phe-BztA-Gln-NH2
notes: as for B8

The binders below were run against T1, full-length beta-Catenin (Uniprot ID …) (assay: fluorescence polarization competition; full-length beta-catenin with 5FAM-TCF4(10-53) probe as competitor).
Experimental: (§1) The plate was incubated protected from light for 60 minutes at 20° C. prior to read. Reads were performed on a CLARIOstar plate reader (BMG Labtech) in duplicate, and data were fitted to a 1:1 binding model with hill slope using an in-house script. All provided concentrations are final concentrations.

Q: How did the IC50 turn out when B1 was run?
A: 56 nM

The binders below were run against T2, full-length beta-Catenin (Uniprot ID …) (assay: fluorescence polarization competition; peptide titrated against 10 nM full-length beta-catenin + 10 nM 5FAM-TCF4(10-53) probe).
Experimental: as §1

Q: Which IC50 does the source give for B2 here?
A: 67.5 nM

Q: B3 was tested. Which IC50 did it give?
A: 70 nM

Q: With B4 as the binder, how does the IC50 read?
A: 56 nM

Each binder was assayed against T3, full-length beta-Catenin (Uniprot ID …) (assay: fluorescence polarization competition; full-length beta-catenin, competitor 5FAM-TCF4(10-53) probe).
Procedure, shortened: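 Fluorescence polarization was read in duplicate after the plate sat 60 minutes at 20° C. shielded from light. Values come from fitting to a 1:1 binding model with hill slope.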

Q: B5 was tested. Which IC50 did it give?
A: 83.5 nM

Q: B6 was tested. Which IC50 did it give?
A: 27 nM

Q: With B7 as the binder, how does the IC50 read?
A: 44 nM

Q: With B8 as the binder, how does the IC50 read?
A: 27 nM

Q: B9 was tested. Which IC50 did it give?
A: 3720 nM

Q: For B10, which IC50 is on record?
A: 133 nM

Q: For B11, which IC50 is on record?
A: 125 nM

Q: For B12, which IC50 is on record?
A: 92 nM

Q: For B13, which IC50 is on record?
A: 1550 nM

Q: B14 was tested. Which IC50 did it give?
A: 57 nM
